In experiment [1] the target is T1, HIV gp120 antigen (strain HXB2, Immune Tech, cat #IT-001-0022p-PBS) (HIV, strain HXB2, UniProt P04578 33-511).
T1 construct: domain: gp120; Bought protein coated on ELISA plates; also called gp120 HBX2
In words: ELISA, gp120 coated at 1 µg/mL, anti-human kappa-HRP detection; value given to the IgM+J by the sense of the sentence, not by its word order.

Experiment [2] concerns the target T1, HIV gp120 antigen (strain HXB2, Immune …). In words: ELISA, interpolated EC10 values; gp120 coating 0.1 µg/mL end of the series.
Experiment [3] shares this target. In words: ELISA, gp120 coated at 1 µg/mL. A general note: ELISA stands for enzyme-linked immunosorbent assay.
Experiment [4] shares this target. In words: ELISA, interpolated EC10 values; gp120 coating 1.0 µg/mL end of the series.
Experiment [5] shares this target. In words: ELISA, interpolated EC10 values; gp120 coated at 0.1 µg/mL.
Experiment [6] has the same target. In words: ELISA, gp120 coated at 1 µg/mL, anti-human kappa-HRP detection; value given to the IgG by the sense of the sentence, not by its word order.

B1: HIV02 IgM+J (HIV02M+J) (antibody)
heavy: QVQLVQSGGQMKKPGESMRISCQASGYEFIDCTLNWVRLAPGRRPEWMGWLKPRGGAVNYARPLQGRVTMTRDVYSDTAFLELRSLTADDTAVYYCTRGKNCDYNWDFEHWGRGTPVTVSSGSASAPTLFPLVSCENSPSDTSSVAVGCLAQDFLPDSITFSWKYKNNSDISSTRGFPSVLRGGKYAATSQVLLPSKDVMQGTDEHVVCKVQHPNGNKEKNVPLPVIAELPPKVSVFVPPRDGFFGNPRKSKLICQATGFSPRQIQVSWLREGKQVGSGVTTDQVQAEAKESGPTTYKVTSTLTIKESDWLSQSMFTCRVDHRGLTFQQNASSMCVPDQDTAIRVFAIPPSFASIFLTKSTKLTCLVTDLTTYDSVTISWTRQNGEAVKTHTNISESHPNATFSAVGEASICEDDWNSGERFTCTVTHTDLPSPLKQTISRPKGVALHRPDVYLLPPAREQLNLRESATITCLVTGFSPADVFVQWMQRGQPLSPEKYVTSAPMPEPQAPGRYFAHSILTVSEEEWNTGETYTCVVAHEALPNRVTERTVDKSTGKPTLYNVSLVMSDTAGTCY
light: EIVLTQSPGTLSLSPGETAIISCRTSQYGSLAWYQQRPGQAPRLVIYSGSTRAAGIPDRFSGSRWGPDYNLTIRNLESGDFGLYYCQQYEFFGQGTKVQVDIKRTVAAPSVFIFPPSDEQLKSGTASVVCLLNNFYPREAKVQWKVDNALQSGNSQESVTEQDSKDSTYSLSSTLTLSKADYEKHKVYACEVTHQGLSSPVTKSFNRGEC
chain: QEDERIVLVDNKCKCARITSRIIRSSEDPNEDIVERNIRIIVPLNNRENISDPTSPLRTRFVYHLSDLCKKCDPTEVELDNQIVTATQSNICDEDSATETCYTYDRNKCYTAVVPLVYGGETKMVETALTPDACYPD
notes: also called the IgM+J
Consider B1, for which, in experiment [1], the EC50 (as a rule, the concentration at which the effect is half-maximal) was 0.32 µg/mL. In addition, the “fold binding relative to the IgG (HIV02G), on a weight basis (from EC10)” value in experiment [2] amounted to 20 fold. For the same molecule, in experiment [3], the “fold better binding than HIV02G, on a molar basis” value was 42 fold and the “fold difference in EC50 against HIV02G, by weight” value is 7 fold. Further, the “fold binding relative to the IgG (HIV02G), on a weight basis (from EC10)” value in experiment [4] came out at 5 fold. Also, the “fold better binding than the IgG (HIV02G), on a molar basis” value in experiment [5] was found to be 120 fold.

B2: HIV02 IgG (HIV02G) (antibody, V domains shown)
VH: QVQLVQSGGQMKKPGESMRISCQASGYEFIDCTLNWVRLAPGRRPEWMGWLKPRGGAVNYARPLQGRVTMTRDVYSDTAFLELRSLTADDTAVYYCTRGKNCDYNWDFEHWGRGTPVTVSS
VL: EIVLTQSPGTLSLSPGETAIISCRTSQYGSLAWYQQRPGQAPRLVIYSGSTRAAGIPDRFSGSRWGPDYNLTIRNLESGDFGLYYCQQYEFFGQGTKVQVDI
notes: also called the IgG
In experiment [6], B2 gave an EC50 of 2.3 µg/mL.

(Values after US20180118816A1 (IGM BIOSCIENCES, published 2018).)
